Patent US20240092891A1
Read-outs that look alike come from different tables or passages of the source.

Tests used:
Experiment in all cases: flow cytometry on human CLDN18.1-HEK293 cells, antibody at 100 µg/mL
human CLDN18.1 (human) [1] = molecular target: human CLDN18.1 (human) (UniProt P56856)
human CLDN18.1 (human) [2] = molecular target: human CLDN18.1 (human) (UniProt P56856); remark: listed apart in the source
human CLDN18.1 (human) [3] = molecular target: human CLDN18.1 (human) (UniProt P56856); remark: listed apart in the source

Sequence of human CLDN18.1 (human) (P56856 whole entry): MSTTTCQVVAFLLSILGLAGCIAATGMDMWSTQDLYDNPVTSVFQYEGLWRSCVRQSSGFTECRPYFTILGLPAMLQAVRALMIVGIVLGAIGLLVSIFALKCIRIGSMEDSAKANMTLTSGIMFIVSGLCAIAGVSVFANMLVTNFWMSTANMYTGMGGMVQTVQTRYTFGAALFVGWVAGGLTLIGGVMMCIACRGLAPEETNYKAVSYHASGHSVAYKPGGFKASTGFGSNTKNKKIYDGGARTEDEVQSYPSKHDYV

## irrelevant control hIgG1 (antibody)
Human CLDN18.1 (human) [1]
  positive rate of cell binding: 0.067%
Human CLDN18.1 (human) [2]
  positive rate of cell binding: 0.049%
Human CLDN18.1 (human) [3]
  positive rate of cell binding: 0.851%
